Patent US20050042227A1 (published 2005)

How the values were obtained:
[1] = molecular target: mLRP/LRPTmMegT mini-receptor (MEGt) (UniProt Q07954 3293-4444); assay: cell-based or functional assay
[2] = molecular target: T1, recombinant human alpha-L-iduronidase (Aldurazyme) (human, UniProt P35475 27-653, limits assumed); assay: ligand blot, sLRP2 spotted on membrane, detection with antibodies
T1 construct: also called rhIDU; Recombinant human IDU
T1 sequence (looked up): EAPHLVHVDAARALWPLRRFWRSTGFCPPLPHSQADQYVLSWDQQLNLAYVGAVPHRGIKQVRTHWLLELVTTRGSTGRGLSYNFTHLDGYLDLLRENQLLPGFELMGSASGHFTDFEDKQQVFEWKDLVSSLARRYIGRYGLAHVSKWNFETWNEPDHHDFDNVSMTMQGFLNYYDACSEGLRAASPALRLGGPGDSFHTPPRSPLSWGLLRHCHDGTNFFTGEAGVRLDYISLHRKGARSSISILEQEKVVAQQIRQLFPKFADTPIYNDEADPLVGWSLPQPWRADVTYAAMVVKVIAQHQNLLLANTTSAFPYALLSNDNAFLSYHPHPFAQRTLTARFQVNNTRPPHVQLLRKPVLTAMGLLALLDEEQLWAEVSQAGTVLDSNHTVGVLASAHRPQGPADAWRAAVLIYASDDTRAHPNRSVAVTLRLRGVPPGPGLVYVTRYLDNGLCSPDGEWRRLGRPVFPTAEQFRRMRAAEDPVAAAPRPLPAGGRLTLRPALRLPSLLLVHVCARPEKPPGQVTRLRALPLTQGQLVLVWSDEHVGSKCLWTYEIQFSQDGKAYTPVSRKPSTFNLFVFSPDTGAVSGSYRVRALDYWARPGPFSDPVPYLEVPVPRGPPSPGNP
Experimental: Membranes were then mounted in a Bio-Rad dot blot apparatus. The second ligand-binding domain of LRP1 (sLRP2, 1 μg/well) was applied to the membrane by vacuum filtration. The membrane was then cut into sections that were placed in separate wells of a 24-well plate. Membranes were blocked in TBS (20 mM Tris pH 7.4, 150 mM Sodium Chloride) with 5 mM Calcium Chloride and 3% non-fat dry milk for 30 minutes. Ligands were incubated with each membrane spot for 2 hours at room temperature. Individual blots were washed 2×5 minutes each with blocking buffer and then incubated with different antibodies in block buffer for one hour at room temperature to detect binding.

Sequence of mLRP/LRPTmMegT mini-receptor (MEGt) (Q07954 3293-4444): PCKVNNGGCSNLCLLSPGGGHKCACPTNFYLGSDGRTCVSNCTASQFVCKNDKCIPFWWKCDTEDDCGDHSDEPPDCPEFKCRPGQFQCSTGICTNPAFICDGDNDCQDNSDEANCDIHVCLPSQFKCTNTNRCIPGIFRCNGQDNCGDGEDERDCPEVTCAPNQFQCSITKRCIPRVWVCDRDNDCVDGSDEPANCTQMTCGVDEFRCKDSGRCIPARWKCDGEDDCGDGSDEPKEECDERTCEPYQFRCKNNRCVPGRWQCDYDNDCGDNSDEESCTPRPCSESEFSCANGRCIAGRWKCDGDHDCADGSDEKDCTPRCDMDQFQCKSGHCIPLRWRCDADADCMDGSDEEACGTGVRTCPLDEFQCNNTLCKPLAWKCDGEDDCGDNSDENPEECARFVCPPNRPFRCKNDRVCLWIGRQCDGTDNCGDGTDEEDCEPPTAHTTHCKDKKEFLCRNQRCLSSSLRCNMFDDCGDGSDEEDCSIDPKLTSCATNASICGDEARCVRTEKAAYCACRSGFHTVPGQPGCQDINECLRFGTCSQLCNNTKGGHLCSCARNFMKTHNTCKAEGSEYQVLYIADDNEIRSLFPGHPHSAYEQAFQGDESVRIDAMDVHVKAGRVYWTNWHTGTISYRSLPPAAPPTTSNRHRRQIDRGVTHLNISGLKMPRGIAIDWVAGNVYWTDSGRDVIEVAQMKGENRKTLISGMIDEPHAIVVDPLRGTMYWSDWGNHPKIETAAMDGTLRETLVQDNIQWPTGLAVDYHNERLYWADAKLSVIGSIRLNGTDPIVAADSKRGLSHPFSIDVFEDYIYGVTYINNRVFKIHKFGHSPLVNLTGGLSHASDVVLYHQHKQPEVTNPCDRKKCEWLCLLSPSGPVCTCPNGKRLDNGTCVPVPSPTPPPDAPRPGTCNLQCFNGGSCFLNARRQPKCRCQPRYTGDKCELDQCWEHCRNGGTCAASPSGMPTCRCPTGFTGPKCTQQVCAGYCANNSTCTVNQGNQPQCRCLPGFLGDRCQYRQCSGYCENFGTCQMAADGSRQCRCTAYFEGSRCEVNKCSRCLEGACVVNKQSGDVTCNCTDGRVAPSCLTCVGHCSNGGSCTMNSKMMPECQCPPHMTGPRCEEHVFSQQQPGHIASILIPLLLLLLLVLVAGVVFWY

B1: receptor-associated protein (RAP) (ligand)
chain: YSREKNQPKPSPKRESGEEFRMEKLNQLWEKAQRLHLPPVRLAELHADLKIQERDELAWKKLKLDGLDEDGEKEARLIRNLNVILAKYGLDGKKDARQVTSNSLSGTQEDGLDDPRLEKLWHKAKTSGKFSGEELDKLWREFLHHKEKVHEYNVLLETLSRTEEIHENVISPSDLSDIKGSVLHSRHTELKEKLRSINQGLDRLRRVSHQGYSTEAEFEEPRVIDLWDLAQSANLTDKELEAFREELKHFEAKIEKHNHYQKQLEIAHEKLRHAESVGDGERVSRSREKHALLEGRTKELGYTVKKHLQDLSGRISRARH
- ratio of apical-to-basolateral to basolateral-to-apical permeability coefficient of 125I-RAP, MEGt-transfected MDCK [1]: 460 times

B2: sLRP2, the entire second ligand-binding domain of human LRP1 (receptor, UniProt Q07954 806-1183, looked up)
chain: KCRVNNGGCSSLCLATPGSRQCACAEDQVLDADGVTCLANPSYVPPPQCQPGEFACANSRCIQERWKCDGDNDCLDNSDEAPALCHQHTCPSDRFKCENNRCIPNRWLCDGDNDCGNSEDESNATCSARTCPPNQFSCASGRCIPISWTCDLDDDCGDRSDESASCAYPTCFPLTQFTCNNGRCININWRCDNDNDCGDNSDEAGCSHSCSSTQFKCNSGRCIPEHWTCDGDNDCGDYSDETHANCTNQATRPPGGCHTDEFQCRLDGLCIPLRWRCDGDTDCMDSSDEKSCEGVTHVCDPSVKFGCKDSARCISKAWVCDGDNDCEDNSDEENCESLACRPPSHPCANNTSVCLPPDKLCDGNDDCGDGSDEGELCD
notes: Recombinant soluble fragment made as in Bu and Rennke 1996; also called immobilized LRP
- binding result [2]: no binding
